Values joined by “and” are separate entries in the source; they are usually repeats but may differ in a detail not shown here. Equal entries are not always repeated.
Molecular target: 変性ヒトCD26(ホルマリン固定パラフィン包埋した細胞・組織中、又はSDS/DTT煮沸処理した細胞溶解物中のヒトCD26) (human) (UniProt P27487)
Experiment: immunostaining of FFPE samples, titration of purified antibody (data not shown)

Chain of UniProt P27487 (P27487 whole entry): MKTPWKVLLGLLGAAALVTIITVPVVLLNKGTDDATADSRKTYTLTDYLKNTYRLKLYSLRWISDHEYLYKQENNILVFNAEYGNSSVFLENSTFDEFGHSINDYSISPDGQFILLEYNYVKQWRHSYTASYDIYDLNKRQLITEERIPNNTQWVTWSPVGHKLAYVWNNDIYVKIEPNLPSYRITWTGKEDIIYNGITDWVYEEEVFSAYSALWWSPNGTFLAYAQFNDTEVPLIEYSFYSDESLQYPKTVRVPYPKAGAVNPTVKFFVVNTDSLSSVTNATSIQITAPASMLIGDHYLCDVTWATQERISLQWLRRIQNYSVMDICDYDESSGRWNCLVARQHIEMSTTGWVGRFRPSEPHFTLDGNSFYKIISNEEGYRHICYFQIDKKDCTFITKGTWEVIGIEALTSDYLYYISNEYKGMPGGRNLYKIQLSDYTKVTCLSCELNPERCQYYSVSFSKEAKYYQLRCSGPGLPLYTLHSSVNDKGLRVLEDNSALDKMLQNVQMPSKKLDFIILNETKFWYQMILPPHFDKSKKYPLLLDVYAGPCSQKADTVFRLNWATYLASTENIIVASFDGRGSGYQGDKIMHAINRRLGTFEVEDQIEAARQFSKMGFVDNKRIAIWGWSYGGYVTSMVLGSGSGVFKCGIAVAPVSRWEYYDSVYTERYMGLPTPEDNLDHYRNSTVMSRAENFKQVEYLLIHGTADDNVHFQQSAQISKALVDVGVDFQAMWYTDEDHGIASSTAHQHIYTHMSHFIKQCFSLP

免疫染色の最適濃度	Binder
0.1 μg/mL and 0.2 μg/mL	抗ヒトCD26モノクローナル抗体U16−3 (antibody, V domains shown) VH: EVKLVESGGGLVQPGGSLKLSCATSGFTFSDFYMYWVRQTPEKRLEWVAYISKGGGTTSYPDTVKGRFTISRDNAKNTLYLQLSRLKAEDSAMYYCARRMDYWGQGTSVTVSS VL: DVQMNQSPSSMYASLGERVTITCKASQDINSYLSWFQQKPGKSPKTLIYRANRLVDGVPSRFSGSGSGQDYSLTISSLDYEDMGIYYCLQYDEFPLTFGAGTKLELK
0.5 μg/mL	抗ヒトCD26モノクローナル抗体U38−8 (antibody, V domains shown) VH: EVKLVESGGGLVQPGGSLKLSCATSGFTFSDFYMYWVRQTPEKRLEWVAYISKGGGTTSYPDTVKGRFTISRDNAKNTLYLQLSRLKAEDSAMYYCARRMDYWGQGTSVTVSS VL: DVVVTQTPLSLPVSLGDQASISCRSSQGLEHSSGNTYLHWYLQRPGQSPKLLIYKVSNRFSGVPDRFSGSGSGTDFTLKISRVEAEDLGVYFCSQSTPVPTWTFGGGTKLEIK
